# Assay results: patent US20230250139A1 (MIT, published 2023)
# B1: UBC-1POK(E239Y)-Linker12-gg-HA (other)
# chain: MIDYTAAGFTLLQGAHLYAPEDRGICDVLVANGKIIAVASNIPSDIVPNCTVVDLSGQILCPGFIDQHVHLIGGGGEAGPTTRTPEVALSRLTEAGVTSVVGLLGTDSISRHPESLLAKTRALNEEGISAWMLTGAYHVPSRTITGSVEKDVAIIDRVIGVKCAISDHRSAAPDVYHLANMAAESRVGGLLGGKPGVTVFHMGDSKKALQPIYDLLENCDVPISKLLPTHVNRNVPLFYQALEFARKGGTIDITSSIDEPVAPAEGIARAVQAGIPLARVTLSSDGNGSQPFFDDEGNLTHIGVAGFETLLETVQVLVKDYDFSISDALRPLTSSVAGFLNLTGKGEILPGNDADLLVMTPELRIEQVYARGKLMVKDGKACVKGTFETAGGSGGTGGSGGTGGYPYDVPDYA
# B2: UBC-1POK(E239Y)-Linker7-HA-Linker3-Top7 (other)
# chain: MIDYTAAGFTLLQGAHLYAPEDRGICDVLVANGKIIAVASNIPSDIVPNCTVVDLSGQILCPGFIDQHVHLIGGGGEAGPTTRTPEVALSRLTEAGVTSVVGLLGTDSISRHPESLLAKTRALNEEGISAWMLTGAYHVPSRTITGSVEKDVAIIDRVIGVKCAISDHRSAAPDVYHLANMAAESRVGGLLGGKPGVTVFHMGDSKKALQPIYDLLENCDVPISKLLPTHVNRNVPLFYQALEFARKGGTIDITSSIDEPVAPAEGIARAVQAGIPLARVTLSSDGNGSQPFFDDEGNLTHIGVAGFETLLETVQVLVKDYDFSISDALRPLTSSVAGFLNLTGKGEILPGNDADLLVMTPELRIEQVYARGKLMVKDGKACVKGTFETAGGSGGTGYPYDVPDYAGSGDIQVQVNIDDNGKNFDYTYTVTTESELQKVLNELKDYIKKQGAKRVRISITARTKKEAEKFAAILIKVFAELGYNDINVTWDGDTVTVEGQLE
# B3: CMV-1POK(E239Y)-Linker8-HA (other)
# chain: MIDYTAAGFTLLQGAHLYAPEDRGICDVLVANGKIIAVASNIPSDIVPNCTVVDLSGQILCPGFIDQHVHLIGGGGEAGPTTRTPEVALSRLTEAGVTSVVGLLGTDSISRHPESLLAKTRALNEEGISAWMLTGAYHVPSRTITGSVEKDVAIIDRVIGVKCAISDHRSAAPDVYHLANMAAESRVGGLLGGKPGVTVFHMGDSKKALQPIYDLLENCDVPISKLLPTHVNRNVPLFYQALEFARKGGTIDITSSIDEPVAPAEGIARAVQAGIPLARVTLSSDGNGSQPFFDDEGNLTHIGVAGFETLLETVQVLVKDYDFSISDALRPLTSSVAGFLNLTGKGEILPGNDADLLVMTPELRIEQVYARGKLMVKDGKACVKGTFETAGGSGGTGGYPYDVPDYA
# B4: UBC-1POK(E239Y)-Linker25-HA-gsg-Top7 (other)
# chain: MIDYTAAGFTLLQGAHLYAPEDRGICDVLVANGKIIAVASNIPSDIVPNCTVVDLSGQILCPGFIDQHVHLIGGGGEAGPTTRTPEVALSRLTEAGVTSVVGLLGTDSISRHPESLLAKTRALNEEGISAWMLTGAYHVPSRTITGSVEKDVAIIDRVIGVKCAISDHRSAAPDVYHLANMAAESRVGGLLGGKPGVTVFHMGDSKKALQPIYDLLENCDVPISKLLPTHVNRNVPLFYQALEFARKGGTIDITSSIDEPVAPAEGIARAVQAGIPLARVTLSSDGNGSQPFFDDEGNLTHIGVAGFETLLETVQVLVKDYDFSISDALRPLTSSVAGFLNLTGKGEILPGNDADLLVMTPELRIEQVYARGKLMVKDGKACVKGTFETAGGSGGTGGSGGTGGSGGTGGSGGTGYPYDVPDYAGSGDIQVQVNIDDNGKNFDYTYTVTTESELQKVLNELKDYIKKQGAKRVRISITARTKKEAEKFAAILIKVFAELGYNDINVTWDGDTVTVEGQLE
# B5: CMV-DHF40-Linker8-HA (other)
# chain: MSSEKEELRERLVKICVELAKLKGDDTLKAAEAAEEAFRLVVLAAMLAGIDSSEVLELAIRLIKTCVVLAAMEGYDISEACRAAAEAFTRVAMAALRAGITSSLVLKAAIELIKECVLNAAVEGYDISEACRAAAEAFKRVAEAAKRAGITSLETLLRAIEEIRKRVEEAQREGNDISEACRQAAEEFRKKAEELKRRGDVGGSGGTGGYPYDVPDYA
# Target: the molecule itself
# Test: self-assembly in cultured mouse hippocampal neurons; anti-HA immunofluorescence, confocal
row,Protein,binding result
1,B1,binds
2,B2,binds
3,B3,binds
4,B4,binds
5,B5,binds
